Patent US20250270314A1 (TAVOTEK BIOTECH SUZHOU, published 2025)
Substitutions are numbered along the chain they refer to.

T1: recombinant human CDH17 (R&D systems) (human, UniProt Q12864 23-787)
T1 construct: Bought recombinant protein coated on the ELISA plate; also called human Cadherin-17
T1 sequence: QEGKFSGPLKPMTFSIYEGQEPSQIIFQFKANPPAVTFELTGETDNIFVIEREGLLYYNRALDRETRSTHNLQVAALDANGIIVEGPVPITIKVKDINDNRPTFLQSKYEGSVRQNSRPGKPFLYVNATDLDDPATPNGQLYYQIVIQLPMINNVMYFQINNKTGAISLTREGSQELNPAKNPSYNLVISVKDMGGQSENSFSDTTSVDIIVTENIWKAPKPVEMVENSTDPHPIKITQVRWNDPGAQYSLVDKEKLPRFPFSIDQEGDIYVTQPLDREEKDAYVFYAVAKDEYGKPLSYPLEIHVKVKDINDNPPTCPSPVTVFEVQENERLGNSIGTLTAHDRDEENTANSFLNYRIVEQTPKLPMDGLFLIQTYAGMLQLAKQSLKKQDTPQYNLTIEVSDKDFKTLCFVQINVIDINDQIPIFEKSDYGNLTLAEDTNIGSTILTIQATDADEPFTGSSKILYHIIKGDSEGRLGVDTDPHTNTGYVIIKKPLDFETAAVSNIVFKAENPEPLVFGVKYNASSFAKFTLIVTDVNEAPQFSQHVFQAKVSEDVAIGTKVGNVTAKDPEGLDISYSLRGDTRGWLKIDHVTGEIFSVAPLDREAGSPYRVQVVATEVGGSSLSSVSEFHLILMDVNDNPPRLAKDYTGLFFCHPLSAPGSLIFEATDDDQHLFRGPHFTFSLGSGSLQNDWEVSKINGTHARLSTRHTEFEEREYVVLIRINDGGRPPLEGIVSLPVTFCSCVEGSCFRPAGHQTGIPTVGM

T2: human CDH17 on AGS gastric cancer cells and AsPC-1 pancreatic cancer cells (human, UniProt Q12864 23-832)
T2 construct: Native CDH17 on the surface of cancer cell lines; also called CDH17 expressing AGS cells; CDH17 expressing AsPC-1 pancreatic cancer cells
T2 sequence: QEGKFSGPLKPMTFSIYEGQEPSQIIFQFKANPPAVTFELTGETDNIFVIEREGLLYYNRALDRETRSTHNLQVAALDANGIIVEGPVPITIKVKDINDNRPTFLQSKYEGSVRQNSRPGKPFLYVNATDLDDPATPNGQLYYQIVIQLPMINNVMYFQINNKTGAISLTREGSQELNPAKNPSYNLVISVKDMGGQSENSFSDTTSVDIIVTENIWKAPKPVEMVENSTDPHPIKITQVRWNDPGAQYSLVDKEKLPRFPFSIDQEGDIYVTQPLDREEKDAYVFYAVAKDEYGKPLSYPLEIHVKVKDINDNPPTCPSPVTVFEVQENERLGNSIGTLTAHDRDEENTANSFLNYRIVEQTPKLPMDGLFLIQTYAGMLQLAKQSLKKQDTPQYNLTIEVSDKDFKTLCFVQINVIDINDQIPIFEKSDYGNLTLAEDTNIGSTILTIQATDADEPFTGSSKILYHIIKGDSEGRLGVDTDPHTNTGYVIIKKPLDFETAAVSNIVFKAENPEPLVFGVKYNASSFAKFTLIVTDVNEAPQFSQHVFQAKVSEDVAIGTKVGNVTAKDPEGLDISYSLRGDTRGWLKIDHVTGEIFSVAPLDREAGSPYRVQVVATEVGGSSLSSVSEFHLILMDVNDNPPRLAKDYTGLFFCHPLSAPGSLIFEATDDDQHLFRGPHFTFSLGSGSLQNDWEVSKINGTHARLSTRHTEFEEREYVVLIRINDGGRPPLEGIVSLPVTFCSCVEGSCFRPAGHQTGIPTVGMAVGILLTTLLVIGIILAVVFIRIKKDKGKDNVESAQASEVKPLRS

B1: VHO v358 (VHH)
VHH: EVQLLESGGGLVQPGGSLRLSCAASGFTFSDYWMSWVRQAPGKGLEWVSNISGDGGSTYYADSVKGRFTISRDNSKNTLYLQMNSLRAEDTAVYYCAKTTDLLQGAFDYWGQGTLVTVSS
notes: Variable-heavy-only (VHO) single domain; also called TS00358
B2: VHO v366 (VHH)
VHH: EVQLLESGGGLVQPGGSLRLSCAASGFTFSDYWMSWVRQAPGKGLEWVSNINGDGGSTYYADSVKGRFTISRDNSKNTLYLQMNSLRAEDTAVYYCAKTSTFYKQDKFDYWGQGTLVTVSS
notes: Variable-heavy-only (VHO) single domain; also called TS00366
B3: VHO v364 (VHH)
VHH: EVQLLESGGGLVQPGGSLRLSCAASGFTFSDYWMSWVRQAPGKGLEWVSNISGSGGSTYYADSVKGRFTISRDNSKNTLYLQMNSLRAEDTAVYYCAKTSDWLLHDADLHFDYWGQGTLVTVSS
notes: Variable-heavy-only (VHO) single domain; also called TS00364; CDH17-VHO364
B4: VHO v363 (VHH)
VHH: B3 VHH with D31T, G53Q, S54D, S100T, L104Q, H105D, D106K, A107V, L109E, H110A
notes: Variable-heavy-only (VHO) single domain; also called TS00363
B5: CDH17 v2 (antibody, human IgG1, V domains shown)
VH: QVQLVQSGAEVKKPGSSVKVSCKVSGYTFTDHTIHWMKQRPGQGLEWIGYIYPRDVITQYNEKFKGKVTLTADKSTSTAYMELSSLRSEDTAVYLCARWGYFYGSRSYYFDYWGQGTTVTVSS
VL: DIVMSQSPSSLAVSVGEKVTMSCKSSQSLLHSSNQKNYLAWYQQKPGQSPKVLIYWASTRESGVPDRFTGSGSGTDFTLTITSVKSEDLAVYYCQQYYSYPWTFGGGTRLEIK
notes: described as human IgG1 monoclonal antibody; also called anti-CDH17 v2
B6: CDH17 v3 (antibody, V domains shown)
VH: QVQLQQSDAELVKPGASVKISCKVSGYTFTDHTIHWMKQRPEQGLEWIGYIYPRDVITQYNEKFKGKATLTADKSSSTAYMQLNSLTSEDSAVYLCARWGYFYGSRSYYFDYWGQGTTLTVSS
VL: B5 VL
notes: typical human IgG heavy and light chain bands on SDS-PAGE
B7: CDH17 v5 (antibody, V domains shown)
VH: B5 VH
VL: DIVMTQSQKFMSTTVGDRVNITCKASQNVGTAVAWYQQKPGQSPKLLIYSASNRYTGVPDRFTGSGSGTDFTLTITNMQSKDLADYFCQQYSSYPWTFGGGTKLEIK
notes: as for B6
B8: CDH17 v4 (antibody, V domains shown)
VH: EVQLQQSVAELVKPGASVKMSCKVSGYTLTDHTIHWMKQRPEQGLEWIGYIYPRDGITGYNEKFKGKATLTADTSSSTAYMQLNSLTSEDSAVYFCARWGYSYRNYAYYYDYWGQGTTLTVSS
VL: B7 VL
notes: as for B6
B9: CDH17 v6 (antibody, V domains shown)
VH: B6 VH
VL: B7 VL
notes: as for B6

The binders below were run against T1, recombinant human CDH17 (R&D systems) (assay: ELISA, recombinant human CDH17).
Description: (§1) ELISA-based binding assay was employed to evaluate the binding to CDH17 by anti-CDH17 antibodies. In this assay, 100 μL of […] recombinant human CDH17 (R&D systems) was coated on an ELISA plate. Increasing concentrations of masked and reference mAbs were applied on the plate and their binding to the recombinant human proteins were detected by HRP-conjugated anti-human secondary antibody. […] The expressed anti-CDH17 mAbs had potent binding to CDH17. The anti-CDH17 were tested for binding to AGS gastric cancer cells and AsPC-1 pancreatic cancer cells.

binding result | Binder
binds | B1
binds | B2
binds | B3
binds | B4

What follows are binders tested against T2, human CDH17 on AGS gastric cancer cells … (assay: flow cytometry on AGS and AsPC-1 cells).

binding result | Binder
binds | B1
binds | B2
binds | B3
binds | B4

Each binder was assayed against T1, recombinant human CDH17 (R&D systems) (assay: ELISA, plate coated with recombinant human CDH17).
Description: as §1

binding result | Binder
binds | B5
binds | B6
binds | B7
binds | B8
binds | B9
